Data as given in PMC4266902, “Néstor-Guillermo Progeria Syndrome: a biochemical insight into Barrier-to-Autointegration Factor 1, alanine 12 threonine mutation” (BMC Molecular Biology, 2014).
Residue numbers refer to the chain shown, from its start. Numbers in names are those of the source.

T1: BANF1 WT (UniProt O75531 1-89)
T1 sequence: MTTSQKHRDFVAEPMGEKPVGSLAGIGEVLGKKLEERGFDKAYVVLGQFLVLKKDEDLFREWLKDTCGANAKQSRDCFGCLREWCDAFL

B1: recombinant HexaHis-tagged wild type BANF1 (Barrier-to-Autointegration Factor 1) (natural protein, human, UniProt O75531 1-89, looked up)
chain: T1 sequence
notes: Barrier-to-Autointegration Factor 1 (BANF1, BAF1), human, 89 amino acid residues; BANF1 CDS sub-cloned into pEX-N-His (Origene); also called BANF1 WT; WT BANF1; not shown: His6, N-terminal, kept
B2: recombinant HexaHis-tagged A12T BANF1 (natural protein, human, UniProt O75531 1-89, looked up)
chain: T1 sequence with A12T
notes: Barrier-to-Autointegration Factor 1 (BANF1, BAF1), human, 89 amino acid residues; BANF1 CDS in pEX-N-His (Origene) with the patient mutation c.34G>A [p.A12T] made by site-directed mutagenesis; A12T is the mutation found in patients with Nestor-Guillermo Progeria Syndrome; also called BANF1 A12T; A12T mutant; not shown: His6, N-terminal, kept
B3: FAM-labelled short dsDNA (dsDNA)
DNA 1: CTCTCCCTTCGCTCCTTTCCTCT
DNA 2: AGAGGAAAGGAGCGAAGGGAGAG

Key:
[1] = molecular target: the molecule itself; assay: SEC; gel filtration of recombinant HexaHis BANF1, absorbance at 280 nm against elution volume; column calibrated with carbonic anhydrase (29 kDa) and myoglobin (17 kDa)
BANF1 WT = molecular target: T1, BANF1 WT; assay: EMSA; 0-1 uM protein, 10 nM DNA, 30 min 4 C; 10 mM Tris-HCl pH 7.0, 20 mM NaCl, 100 ng/mL BSA, 5 mM DTT, 30 min at 4 C; 7% PAGE 0.5x TBE at 4 C (short DNA) or 0.6% agarose 1x TBE (plasmid); conditions: protein: recombinant; tags: N-terminal His6; label: 5'-FAM on strand 1; blunt

| Binder | stoichiometry N [1] | binding result (BANF1 WT) |
| --- | --- | --- |
| B1 | 2 | – |
| B2 | 2 | – |
| B3 | – | binds |
